Test results from publication PMC9178005.

Columns and labels:
[1] = target: Rob Cys281-Cy3B;RNA polymerase sigma70 holoenzyme (Escherichia coli;Escherichia coli, UniProt P0ACI0;P0A7Z4;P0A8V2;P0A8T7;P0A800;P00579 1-289;1-329;1-1342;1-1407;1-91;1-613, C147S;C247S|); experiment: single-molecule FRET
[2] = target: Rob Cys281-Cy3B;biotinylated RNAP holoenzyme (Escherichia coli;Escherichia coli?, UniProt P0ACI0;P0A7Z4;P0A8V2;P0A8T7;P0A800;P00579 1-289;1-329;1-1342;1-1407;1-91;1-613, C147S;C247S|); experiment: single-molecule FRET

| Binder | binding result [1] | binding result [2] |
| --- | --- | --- |
| micF DNA2-Cy5-biotin (bioDNA) (dsDNA, internal Cy5-dT in template strand) DNA 1: GTATTTGACAGCACTGAATGTCAAAACAAAACCTTCACTCGCAACTATAATGGGAGCTGTCACGGATGCAACTTTATTTATTACC DNA 2: GGTAATAAATAAAGTTGCATCCGTGACAGCTCCCATTATAGTTGCGAGTGAAGGTTTTGTTTTGACATTCAGTGCTGTCAAATAC | binds |  |
| micF DNA2-Cy5 (dsDNA, internal Cy5-dT in template strand) DNA 1: GTATTTGACAGCACTGAATGTCAAAACAAAACCTTCACTCGCAACTATAATGGGAGCTGTCACGGATGCAACTTTATTTATTACC DNA 2: GGTAATAAATAAAGTTGCATCCGTGACAGCTCCCATTATAGTTGCGAGTGAAGGTTTTGTTTTGACATTCAGTGCTGTCAAATAC |  | binds |
